Results published in PMC3961559.
Where two headings read alike, the source gives them in different places.

Tests used:
human alpha-thrombin [1] = target: T1, human alpha-thrombin (Homo sapiens, UniProt P00734;P00734 328-363;364-622); assay: competition
human alpha-thrombin [2] = target: T1, human alpha-thrombin; assay: competition; remark: listed apart in the source

Row | Binder | binding result (human alpha-thrombin [1]) | binding result (human alpha-thrombin [2])
1 | GGTTGGTGTGGTTGG (structured_DNA) [thrombin binding aptamer (TBA) oligo] | binds | 
2 | GGCGTAACTGATCGATCGT (ssDNA) [non-specific oligonucleotide] |  | no binding
